Laboratory results: patent publication US20160333068A1 (BRITISH COLUMBIA CANCER AGENCY BRANCH, published 2016)
Bridge positions count the residues as written; N and C are the ends. Square brackets hold non-standard residues; d marks the D form. AMBF3 = N,N-dimethylammoniomethyl-trifluoroborate

Molecular target: T1, sstr3 (UniProt P32745 1-418, limits assumed)
T1 construct: whole, on cells; Membranes of transfected CHO-K1 cells; The species is printed only for sstr2 (human); also called somatostatin receptor subtype 3
Test: competitive filtration binding assay, displacement of [^125I]-Tyr-somatostatin-14 (0.2 nM) from CHO-K1 membranes
Protocol: Membranes from Chinese hamster ovary K1 cells transfected with sstr1, sstr2, sstr3, sstr5, and [¹²⁵I]-Tyr-somatostatin-14 were obtained from PerkinElmer. A standard filtration binding assay was performed in 96-well plates (MultiScreen; Millipore) to determine the binding affinities (inhibition constant, or Kᵢ) of AMBF₃-TATE against different receptor subtypes. Briefly, membranes ([…]) were incubated with the ¹²⁵I-labelled standard at a concentration of 0.05 nM for sstr2 or 0.2 nM for other subtypes. Increasing concentrations of AMBF₃-TATE were added to the wells in buffer (25 mM N-2-hydroxyethylpiperazine-N-2-ethanesulfonic acid, pH 7.4; 10 mM MgCl₂; 1 mM CaCl₂; and 0.5% bovine serum albumin). After incubation (37° C., 1 h), the wells were aspirated and washed 8 times with 50 mM ice-cold buffer (Tris-HCl, pH 7.4) over grade GF/B filters. The filters were removed and counted by a γ counter (Cobra II; Packard). Data were fitted to a 1-site competition model (GraphPad Prism 6.1 software) to calculate Kᵢ.

T1 sequence (P32745 whole entry): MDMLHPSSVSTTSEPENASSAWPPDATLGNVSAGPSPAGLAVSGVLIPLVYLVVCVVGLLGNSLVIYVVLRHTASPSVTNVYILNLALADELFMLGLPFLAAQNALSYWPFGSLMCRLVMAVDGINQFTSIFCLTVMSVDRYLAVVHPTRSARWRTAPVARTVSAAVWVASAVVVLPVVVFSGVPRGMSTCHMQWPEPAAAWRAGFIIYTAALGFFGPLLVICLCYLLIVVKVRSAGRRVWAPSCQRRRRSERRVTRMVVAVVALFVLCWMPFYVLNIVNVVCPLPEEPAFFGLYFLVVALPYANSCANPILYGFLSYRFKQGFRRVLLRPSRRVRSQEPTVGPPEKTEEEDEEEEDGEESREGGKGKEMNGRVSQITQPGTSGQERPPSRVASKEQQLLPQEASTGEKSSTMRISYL

B1: AMBF3-TATE (peptide)
peptide: {AMBF3-triazolylacetyl}-[dF]CY[dW]KTCT-OH
modifications: disulfide 2-7
notes: Free C-terminal acid (octreotate); also called ^19F-AMBF3-TATE; ^18F-AMBF3-TATE
With B1 the Ki was 28.4 nM.
